Holding throughout (assay): peptide SPOT array, c-Myc-tagged receptor at 1 uM or 100 nM, anti-c-Myc-Cy3
One assay concerns the target Bcl-xL, Q07817.
A further assay deals with T1, Bfl-1, Q16548.
T1 chain: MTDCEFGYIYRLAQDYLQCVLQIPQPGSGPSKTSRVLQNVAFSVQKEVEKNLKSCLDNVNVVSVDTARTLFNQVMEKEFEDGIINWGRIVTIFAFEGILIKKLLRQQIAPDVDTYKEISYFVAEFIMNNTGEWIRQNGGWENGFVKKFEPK

A further assay concerns the target T2, Bcl-w, Q92843.
T2 chain: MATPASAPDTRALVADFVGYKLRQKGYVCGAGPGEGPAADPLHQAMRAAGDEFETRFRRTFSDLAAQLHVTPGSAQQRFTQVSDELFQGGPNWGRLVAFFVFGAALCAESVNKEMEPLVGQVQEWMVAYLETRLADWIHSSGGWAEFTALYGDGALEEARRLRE

The next assay addresses T3, Mcl-1, Q07820.
T3 chain: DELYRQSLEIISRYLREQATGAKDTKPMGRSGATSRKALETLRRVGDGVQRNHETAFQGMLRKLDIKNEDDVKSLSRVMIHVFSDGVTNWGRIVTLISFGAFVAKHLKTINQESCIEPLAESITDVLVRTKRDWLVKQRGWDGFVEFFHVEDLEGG

Another assay deals with Bcl-2, P10415.
Chain of Bcl-2, P10415 (P10415 1-217): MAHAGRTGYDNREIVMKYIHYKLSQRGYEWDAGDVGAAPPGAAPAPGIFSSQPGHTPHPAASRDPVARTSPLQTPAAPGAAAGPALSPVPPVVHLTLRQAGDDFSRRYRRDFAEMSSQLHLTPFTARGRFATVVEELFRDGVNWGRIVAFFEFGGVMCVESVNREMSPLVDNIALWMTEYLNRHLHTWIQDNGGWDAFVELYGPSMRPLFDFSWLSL

Chain of Bcl-xL, Q07817 (Q07817 1-209): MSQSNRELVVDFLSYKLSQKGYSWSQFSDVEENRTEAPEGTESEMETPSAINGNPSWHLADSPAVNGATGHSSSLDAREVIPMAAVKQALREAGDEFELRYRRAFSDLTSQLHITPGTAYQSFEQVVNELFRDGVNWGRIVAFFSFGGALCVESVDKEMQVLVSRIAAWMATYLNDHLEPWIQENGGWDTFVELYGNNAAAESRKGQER

Consider LKELDLSGNSLSHSAVKSLCKTLRRP [NLRP1], for which the SPOT signal as a fraction of Bim BH3's signal on the same receptor and array is 0.4 in the assay with Bcl-xL, Q07817; 0.42 with Bfl-1, Q16548; 0.41 with Bcl-w, Q92843; 0.13 with Mcl-1, Q07820; 0.09 with Bcl-2, P10415.

Regarding AIPRAEVAELLVHSGDFLVRESQGKQ [FES], the SPOT signal as a fraction of Bim BH3's signal on the same receptor and array was found to be 0.03 in the assay with Bcl-xL, Q07817; 0.02 with Bfl-1, Q16548; 0.02 in the assay with Bcl-w, Q92843; 0.03 with Mcl-1, Q07820; 0.01 in the assay with Bcl-2, P10415.

SSTMGQVGRQLAIIGDDINRRYDSEF [BAK1]: the SPOT signal as a fraction of Bim BH3's signal on the same receptor and array with Bcl-xL, Q07817 amounted to 0.4; in the assay with Bfl-1, Q16548, 0.4; with Bcl-w, Q92843 it was 0.72; with Mcl-1, Q07820 it was 0.84; with Bcl-2, P10415 it was 0.27.

RQAFYLHTTKLTRIARRLCREILRPW: the SPOT signal as a fraction of Bim BH3's signal on the same receptor and array in the assay with Bcl-xL, Q07817 worked out at 0.75; in the assay with Bfl-1, Q16548 it was 0.72; with Bcl-w, Q92843, 0.89; with Mcl-1, Q07820 it was 0.41; in the assay with Bcl-2, P10415 it was 0.23.

In the case of DFMGRTFAKPLVKMADEAYCPPRFPP [OTOF], the SPOT signal as a fraction of Bim BH3's signal on the same receptor and array is 0.26 with Bcl-xL, Q07817; 0.1 in the assay with Bfl-1, Q16548; 0.14 with Bcl-w, Q92843; 0.1 in the assay with Mcl-1, Q07820; 0.06 in the assay with Bcl-2, P10415.

As to ASEASLFEEALEKYGKDFNDIRQDFL [MTA3], the SPOT signal as a fraction of Bim BH3's signal on the same receptor and array in the assay with Bcl-xL, Q07817 is 0.02; in the assay with Bfl-1, Q16548, 0.01; with Bcl-w, Q92843, 0.02; with Mcl-1, Q07820, 0.02; with Bcl-2, P10415, 0.01.

In the case of RAGELDRARELMRIGKRFGAVLEALE [CC2D1B], the SPOT signal as a fraction of Bim BH3's signal on the same receptor and array in the assay with Bcl-xL, Q07817 was 0.16; with Bfl-1, Q16548, 0.16; with Bcl-w, Q92843, 0.13; with Mcl-1, Q07820, 0.06; with Bcl-2, P10415, 0.03.

On to HRTSNVLTLSLKRFANFSGGKITKDV [USP36], for which the SPOT signal as a fraction of Bim BH3's signal on the same receptor and array stood at 0.55 with Bcl-xL, Q07817; 0.48 with Bfl-1, Q16548; 0.65 with Bcl-w, Q92843; 0.29 with Mcl-1, Q07820; 0.2 with Bcl-2, P10415.

For the molecule NKDGKSVSNRLRRLSDNCGGKVLSIT [KIAA0430], the SPOT signal as a fraction of Bim BH3's signal on the same receptor and array was determined as 0.56 with Bcl-xL, Q07817; 0.31 in the assay with Bfl-1, Q16548; 0.61 with Bcl-w, Q92843; 0.21 with Mcl-1, Q07820; 0.13 with Bcl-2, P10415.

LFRRRDISSSLNSLADSNAREFEEES: the SPOT signal as a fraction of Bim BH3's signal on the same receptor and array with Bcl-xL, Q07817 worked out at 0.08; with Bfl-1, Q16548, 0.05; in the assay with Bcl-w, Q92843 it was 0.04; with Mcl-1, Q07820, 0.04; with Bcl-2, P10415, 0.02.

IKEAADIIQKLHLIAQELPFDRFSEV [EXOC5]: the SPOT signal as a fraction of Bim BH3's signal on the same receptor and array amounted to 0.11 with Bcl-xL, Q07817; 0.03 in the assay with Bfl-1, Q16548; 0.21 with Bcl-w, Q92843; 0.09 with Mcl-1, Q07820; 0.01 with Bcl-2, P10415.

For the molecule ASEAMLFEEALEKYGKDFNDIRQDFL, the SPOT signal as a fraction of Bim BH3's signal on the same receptor and array was determined as 0.03 in the assay with Bcl-xL, Q07817; 0.01 in the assay with Bfl-1, Q16548; 0.02 in the assay with Bcl-w, Q92843; 0.03 in the assay with Mcl-1, Q07820; 0.01 in the assay with Bcl-2, P10415.

ASEANLFEEALEKYGKDFTDIQQDFL: the SPOT signal as a fraction of Bim BH3's signal on the same receptor and array in the assay with Bcl-xL, Q07817 amounted to 0.03; with Bfl-1, Q16548, 0.01; with Bcl-w, Q92843, 0.02; with Mcl-1, Q07820 it was 0.03; with Bcl-2, P10415, 0.01.

In the case of KEVEDCVPVFLKHIAHDIYVCGKTIN [TUBGCP6], the SPOT signal as a fraction of Bim BH3's signal on the same receptor and array is 0.04 with Bcl-xL, Q07817; 0.03 with Bfl-1, Q16548; 0.02 in the assay with Bcl-w, Q92843; 0.02 with Mcl-1, Q07820; 0.01 in the assay with Bcl-2, P10415.

As to ALTVKEMAQMLQSFGTELAETELPDD [MCF2], the SPOT signal as a fraction of Bim BH3's signal on the same receptor and array with Bcl-xL, Q07817 amounted to 0.03; with Bfl-1, Q16548, 0.01; in the assay with Bcl-w, Q92843, 0.02; with Mcl-1, Q07820, 0.03; in the assay with Bcl-2, P10415, 0.01.
